This passage reports EC50, inhibition of VEGF-dependent HUVEC proliferation, IC50 and IC50 results from US20170369552A1.

Experiment [1] has as its target VEGF165, a splice variant of VEGF-A (UniProt P15692). The experiment in a line: direct binding ELISA; VEGF165 coated, anti-human IgG Fc-HRP detection. For orientation: In an ELISA, binding on a coated surface is turned into a signal by an enzyme label.
The target is the same in experiment [2]. As to the kind of experiment: cell-based or functional assay.
The target is the same in experiment [3]. The experiment in a line: competitive binding in solution; 5 pM VEGF165 overnight, free VEGF165 by Quantikine sandwich ELISA.

As usually defined, the EC50 is the midpoint of the concentration-response curve. A lower EC50 goes with higher potency in that assay. In general, IC50 refers to the concentration that inhibits the measured activity by half. High values mean weaker potency, low ones greater potency.

Sequence of VEGF165, a splice variant of VEGF-A (P15692 other isoform, or with tags, fused parts or gaps mutant): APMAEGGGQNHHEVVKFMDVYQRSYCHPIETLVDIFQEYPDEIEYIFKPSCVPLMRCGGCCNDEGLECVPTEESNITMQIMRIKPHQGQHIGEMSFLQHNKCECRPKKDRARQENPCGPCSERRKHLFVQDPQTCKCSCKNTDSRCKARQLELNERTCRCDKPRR

As to “Positive Control 1 (synthesized VEGF Trap) (from UniProt P17948 129-230; P35968 225-327) (Fc fusion)”, the EC50 in experiment [1] stood at 0.087 nM. For the same substance, the inhibition of VEGF-dependent HUVEC proliferation, IC50 in experiment [2] is 0.068 nM. In experiment [3], this substance displayed an IC50 of 0.00517 nM.
